Laboratory results from patent publication US20230111418A1 (TESARO, published 2023).
Blank lines part the entries; values can stand above or below the binder they belong to.

What was measured:
[1] = molecular target: T1, Human PD-1 on the cell surface (human, UniProt Q15116 25-288); assay: cell-based or functional assay
[2] = molecular target: T1, Human PD-1 on the cell surface; assay: cell-based or functional assay; remark: listed apart in the source
[3] = molecular target: T2, Cynomolgus monkey PD-1 (SPR analyte/ligand; cynomolgus monkey PD-1 Fc fusion) (cynomolgus monkey, UniProt B0LAJ3 25-170); assay: SPR
T2 construct: also called Cyno PD-1

[4] = molecular target: T3, Human PD-1 (SPR analyte/ligand; human PD-1 Fc fusion) (human, UniProt Q15116 25-167, limits assumed); assay: SPR
T3 construct: not shown: Fc part of the fusion

[5] = molecular target: T4, Cynomolgus monkey PD-1 expressed on CHO-K1 cells (cynomolgus monkey, UniProt B0LAJ3 25-288); assay: flow cytometry on CHO-K1 cells expressing cynomolgus monkey PD-1
T4 construct: also called Cyno PD-1; cell surface cynomolgus PD-1

[6] = molecular target: T1, Human PD-1 on the cell surface; assay: flow cytometry on CHO-K1 cells expressing human PD-1

T3 sequence (Q15116 25-167 limits assumed): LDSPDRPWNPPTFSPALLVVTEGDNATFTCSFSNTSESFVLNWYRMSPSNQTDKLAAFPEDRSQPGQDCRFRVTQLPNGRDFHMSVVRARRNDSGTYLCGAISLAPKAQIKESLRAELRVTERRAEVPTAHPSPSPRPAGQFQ
T1 sequence (Q15116 25-288): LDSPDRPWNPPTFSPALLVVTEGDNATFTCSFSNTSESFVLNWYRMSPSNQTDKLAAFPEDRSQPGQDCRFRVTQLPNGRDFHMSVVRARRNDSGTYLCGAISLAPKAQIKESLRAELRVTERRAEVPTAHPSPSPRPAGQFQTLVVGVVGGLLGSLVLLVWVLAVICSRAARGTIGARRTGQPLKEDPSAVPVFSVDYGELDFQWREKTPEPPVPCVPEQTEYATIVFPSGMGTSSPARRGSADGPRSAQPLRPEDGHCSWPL
T2 sequence (B0LAJ3 entry or part of it limits assumed): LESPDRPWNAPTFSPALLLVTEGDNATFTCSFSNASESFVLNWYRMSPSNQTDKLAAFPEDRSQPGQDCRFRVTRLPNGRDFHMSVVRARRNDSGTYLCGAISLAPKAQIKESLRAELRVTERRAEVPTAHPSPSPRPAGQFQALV
T4 sequence (B0LAJ3 entry or part of it limits assumed): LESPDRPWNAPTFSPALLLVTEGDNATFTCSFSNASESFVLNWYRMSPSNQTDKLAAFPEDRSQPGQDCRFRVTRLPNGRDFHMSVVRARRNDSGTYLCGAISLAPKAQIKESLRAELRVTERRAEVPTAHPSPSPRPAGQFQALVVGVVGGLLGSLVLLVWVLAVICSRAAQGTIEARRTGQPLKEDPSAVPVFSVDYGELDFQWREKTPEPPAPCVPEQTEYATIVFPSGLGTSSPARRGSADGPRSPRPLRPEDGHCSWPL

IL-2 stimulation ratio in fRO assay, 1 mg/kg, Baseline (n=6) [1]: 1.69 ratio
IL-2 stimulation ratio in fRO assay, 1 mg/kg, Day 3 (n=6) [1]: 1.01 ratio
IL-2 stimulation ratio in fRO assay, 1 mg/kg, Day 15 (n=6) [1]: 1 ratio
IL-2 stimulation ratio in fRO assay, 1 mg/kg, Day 22 (n=2) [1]: 1.32 ratio
IL-2 stimulation ratio in fRO assay, 1 mg/kg, Day 29 (n=2) [1]: 1.08 ratio
IL-2 stimulation ratio in fRO assay, 3 mg/kg, Baseline (n=3) [1]: 1.62 ratio
IL-2 stimulation ratio in fRO assay, 3 mg/kg, Day 3 (n=3) [1]: 0.927 ratio
IL-2 stimulation ratio in fRO assay, 3 mg/kg, Day 15 (n=3) [1]: 0.977 ratio
IL-2 stimulation ratio in fRO assay, 10 mg/kg, Baseline (n=4) [1]: 1.86 ratio
IL-2 stimulation ratio in fRO assay, 10 mg/kg, Day 3 (n=3) [1]: 1.05 ratio
IL-2 stimulation ratio in fRO assay, 10 mg/kg, Day 15 (n=1) [1]: 0.86 ratio
mean IL-2 stimulation ratio in fRO assay, Day 3, across all dose levels [2]: 1 ratio
B1: exemplary humanized monoclonal anti-PD-1 antibody (human IGHG4*01 heavy chain with Ser to Pro hinge mutation at S228, human IGKC*01 kappa light chain; CDRs SEQ … (antibody, human IgG4 S228P, kappa, V domains shown)
VH: EVQLLESGGGLVQPGGSLRLSCAASGFTFSSYDMSWVRQAPGKGLEWVSTISGGGSYTYYQDSVKGRFTISRDNSKNTLYLQMNSLRAEDTAVYYCASPYYAMDYWGQGTTVTVSS
VL: DIQLTQSPSFLSAYVGDRVTITCKASQDVGTAVAWYQQKPGKAPKLLIYWASTLHTGVPSRFSGSGSGTEFTLTISSLQPEDFATYYCQHYSSYPWTFGQGTKLEIKR
modifications: N-glycosylation at asparagine residue 293 (SEQ ID NO: 3)

Kd [3]: 0.53 nM
koff [3]: 0.00023 s⁻¹
kon [3]: 430000 M⁻¹ s⁻¹
Kd [4]: 0.3 nM
koff [4]: 0.00017 s⁻¹
kon [4]: 570000 M⁻¹ s⁻¹
EC50 [5]: 3.4 nM
EC50 [6]: 2 nM
B2: PD-1-binding agent (comprising SEQ ID NOs: 1 and 2) (antibody, V domains shown)
VH: B1 VH
VL: B1 VL
notes: It is probably the same humanized IgG4 (S228P)/kappa antibody as m2
